In the supplement of paper PMC5998384:

Columns and labels:
HeLa Kyoto [1] = assay: solubility in G1/S (NP-40 vs SDS abundance) (log2 ratio); higher = more soluble; conditions: cell cycle stage: G1/S
HeLa Kyoto [2] = assay: melting temperature (median over replicates), in situ; higher = more thermally stable
HeLa Kyoto [3] = assay: solubility change mitosis vs G1/S (difference of NP-40 vs SDS log2 ratios) (log2 ratio difference); higher = more soluble in mitosis
HeLa Kyoto [4] = assay: thermal stability score vs G1/S (z-score of summed log2 fold changes over temperatures); higher = more thermally stable than in G1/S
[5] = cell cycle stage: early G1 (4.5 h after nocodazole release)
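Wherever melting temperature (median over replicates), in situ is given: HeLa Kyoto cells synchronized by double thymidine or nocodazole block, proteins quantified by TMT10plex mass spectrometry, three independent biological replicates.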
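Wherever solubility change mitosis vs G1/S (difference of NP-40 vs SDS log2 ratios) is given: synchronized HeLa Kyoto cells (double thymidine block for G1/S, nocodazole release for mitosis), protein amounts in NP-40 versus SDS lysates quantified by mass spectrometry, three biological replicates.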
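Wherever solubility in G1/S (NP-40 vs SDS abundance) is given: HeLa Kyoto cells arrested at G1/S by double thymidine block, proteins quantified by TMT10plex mass spectrometry in mild NP-40 versus SDS extracts, three biological replicates.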
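Wherever thermal stability score vs G1/S (z-score of summed log2 fold changes over temperatures) is given: synchronized HeLa Kyoto cells, proteins quantified by TMT10plex mass spectrometry, three biological replicates, mitosis taken 0.5 h after nocodazole release, G1/S directly after double thymidine block.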

Sequence: MAGSSTGGGGVGETKVIYHLDEEETPYLVKIPVPAERITLGDFKSVLQRPAGAKYFFKSMDQDFGVVKEEISDDNARLPCFNGRVVSWLVSSDNPQPEMAPPVHEPRAELAPPAPPLPPLPPERTSGIGDSRPPSFHPNVSSSHENLEPETETESVVSLRRERPRRRDSSEHGAGGHRTGGPSRLERHLAGYESSSTLMTSELESTSLGDSDEEDTMSRFSSSTEQSSASRLLKRHRRRRKQRPPRLERTSSFSSVTDSTMSLNIITVTLNMEKYNFLGISIVGQSNERGDGGIYIGSIMKGGAVAADGRIEPGDMLLQVNDMNFENMSNDDAVRVLRDIVHKPGPIVLTVAKCWDPSPQAYFTLPRNEPIQPIDPAAWVSHSAALTGTFPAYPGSSSMSTITSGSSLPDGCEGRGLSVHTDMASVTKAMAAPESGLEVRDRMWLKITIPNAFLGSDVVDWLYHHVEGFPERREARKYASGLLKAGLIRHTVNKITFSEQCYYVFGDLSGGCESYLVNLSLNDNDGSSGASDQDTLAPLPGATPWPLLPTFSYQYPAPHPYSPQPPPYHELSSYTYGGGSASSQHSEGSRSSGSTRSDGGAGRTGRPEERAPESKSGSGSESEPSSRGGSLRRGGEASGTSDGGPPPSRGSTGGAPNLRAHPGLHPYGPPPGMALPYNPMMVVMMPPPPPPVPPAVQPPGAPPVRDLGSVPPELTASRQSFHMAMGNPSEFFVDVM [DVL2]
- solubility in G1/S (log2) (HeLa Kyoto [1]): -0.00889
- melting temperature (HeLa Kyoto [2]; cell cycle stage: G1/S): 47 °C
- melting temperature (HeLa Kyoto [2]; cell cycle stage: mitosis): 48.7 °C
- solubility change mitosis (log2) (HeLa Kyoto [3]): -0.0693
- thermal stability score (HeLa Kyoto [4]; [5]): 0.348
- thermal stability score (HeLa Kyoto [4]; cell cycle stage: mitosis): 0.985

Sequence: MASASYHISNLLEKMTSSDKDFRFMATNDLMTELQKDSIKLDDDSERKVVKMILKLLEDKNGEVQNLAVKCLGPLVSKVKEYQVETIVDTLCTNMLSDKEQLRDISSIGLKTVIGELPPASSGSALAANVCKKITGRLTSAIAKQEDVSVQLEALDIMADMLSRQGGLLVNFHPSILTCLLPQLTSPRLAVRKRTIIALGHLVMSCGNIVFVDLIEHLLSELSKNDSMSTTRTYIQCIAAISRQAGHRIGEYLEKIIPLVVKFCNVDDDELREYCIQAFESFVRRCPKEVYPHVSTIINICLKYLTYDPNYNYDDEDEDENAMDADGGDDDDQGSDDEYSDDDDMSWKVRRAAAKCLDAVVSTRHEMLPEFYKTVSPALISRFKEREENVKADVFHAYLSLLKQTRPVQSWLCDPDAMEQGETPLTMLQSQVPNIVKALHKQMKEKSVKTRQCCFNMLTELVNVLPGALTQHIPVLVPGIIFSLNDKSSSSNLKIDALSCLYVILCNHSPQVFHPHVQALVPPVVACVGDPFYKITSEALLVTQQLVKVIRPLDQPSSFDATPYIKDLFTCTIKRLKAADIDQEVKERAISCMGQIICNLGDNLGSDLPNTLQIFLERLKNEITRLTTVKALTLIAGSPLKIDLRPVLGEGVPILASFLRKNQRALKLGTLSALDILIKNYSDSLTAAMIDAVLDELPPLISESDMHVSQMAISFLTTLAKVYPSSLSKISGSILNELIGLVRSPLLQGGALSAMLDFFQALVVTGTNNLGYMDLLRMLTGPVYSQSTALTHKQSYYSIAKCVAALTRACPKEGPAVVGQFIQDVKNSRSTDSIRLLALLSLGEVGHHIDLSGQLELKSVILEAFSSPSEEVKSAASYALGSISVGNLPEYLPFVLQEITSQPKRQYLLLHSLKEIISSASVVGLKPYVENIWALLLKHCECAEEGTRNVVAECLGKLTLIDPETLLPRLKGYLISGSSYARSSVVTAVKFTISDHPQPIDPLLKNCIGDFLKTLEDPDLNVRRVALVTFNSAAHNKPSLIRDLLDTVLPHLYNETKVRKELIREVEMGPFKHTVDDGLDIRKAAFECMYTLLDSCLDRLDIFEFLNHVEDGLKDHYDIKMLTFLMLVRLSTLCPSAVLQRLDRLVEPLRATCTTKVKANSVKQEFEKQDELKRSAMRAVAALLTIPEAEKSPLMSEFQSQISSNPELAAIFESIQKDSSSTNLESMDTS [CAND1]
- solubility in G1/S (log2) (HeLa Kyoto [1]): 0.0808
- melting temperature (HeLa Kyoto [2]; cell cycle stage: G1/S): 56.9 °C
- melting temperature (HeLa Kyoto [2]; cell cycle stage: mitosis): 56.2 °C
- solubility change mitosis (log2) (HeLa Kyoto [3]): -0.0927
- thermal stability score (HeLa Kyoto [4]; [5]): -0.92
- thermal stability score (HeLa Kyoto [4]; cell cycle stage: mitosis): -0.546

Sequence: MAVPFVEDWDLVQTLGEGAYGEVQLAVNRVTEEAVAVKIVDMKRAVDCPENIKKEICINKMLNHENVVKFYGHRREGNIQYLFLEYCSGGELFDRIEPDIGMPEPDAQRFFHQLMAGVVYLHGIGITHRDIKPENLLLDERDNLKISDFGLATVFRYNNRERLLNKMCGTLPYVAPELLKRREFHAEPVDVWSCGIVLTAMLAGELPWDQPSDSCQEYSDWKEKKTYLNPWKKIDSAPLALLHKILVENPSARITIPDIKKDRWYNKPLKKGAKRPRVTSGGVSESPSGFSKHIQSNLDFSPVNSASSEENVKYSSSQPEPRTGLSLWDTSPSYIDKLVQGISFSQPTCPDHMLLNSQLLGTPGSSQNPWQRLVKRMTRFFTKLDADKSYQCLKETCEKLGYQWKKSCMNQVTISTTDRRNNKLIFKVNLLEMDDKILVDFRLSKGDGLEFKRHFLKIKGKLIDIVSSQKIWLPAT [CHEK1]
- solubility in G1/S (log2) (HeLa Kyoto [1]): 0.104
- melting temperature (HeLa Kyoto [2]; cell cycle stage: G1/S): 51.7 °C
- melting temperature (HeLa Kyoto [2]; cell cycle stage: mitosis): 51.9 °C
- solubility change mitosis (log2) (HeLa Kyoto [3]): -0.07
- thermal stability score (HeLa Kyoto [4]; [5]): 1.82
- thermal stability score (HeLa Kyoto [4]; cell cycle stage: mitosis): 1.62

Sequence: MAATASAGVPATVSEKQEFYQLLKNLINPSCMVRRQAEEIYENIPGLCKTTFLLDAVRNRRAGYEVRQMAAALLRRLLSSGFEEVYPNLPADVQRDVKIELILAVKLETHASMRKKLCDIFAVLARNLIDEDGTNHWPEGLKFLIDSIYSKNVVLWEVALHVFWHFPGIFGTQERHDLDIIKRLLDQCIQDQEHPAIRTLSARAAAAFVLANENNIALFKDFADLLPGILQAVNDSCYQDDDSVLESLVEIADTVPKYLGPYLEDTLQLSLKLCGDSRLSNLQRQLALEVIVTLSETATPMLKKHTNIIAQAVPHILAMMVDLQDDEDWVNADEMEEDDFDSNAVAAESALDRLACGLGGKVVLPMTKEHIMQMLQSPDWKYRHAGLMALSAIGEGCHQQMESILDETVNSVLLFLQDPHPRVRAAACTTLGQMATDFAPNFQKKFHETVIAALLRTMENQGNQRVQSHAASALIIFIEDCPKSLLVLYVDSMVKNLHSVLVIKLQELIRNGTKLALEQLVTTIASVADTIEEKFVPYYDIFMPSLKHIVELAVQKELKLLRGKTIECISHIGLAVGKEKFMQDASNVMQLLLKTQSDLNNMEDDDPQTSYMVSAWARMCKILGKDFQQYLPLVIEPLIKTASAKPDVALLDTQDVENMSDDDGWQFVNLGDQQSFGIKTSGLEAKATACQMLVYYAKELREGFVEYTEQVVKLMVPLLKFYFHDNVRVAAAESMPFLLECARIRGPEYLAQMWQFICDPLIKAIGTEPDTDVLSEIMNSFAKSIEVMGDGCLNDEHLEELGGILKAKLEGHFKNQELRQVKRQEENYDQQVEMSLQDEDECDVYILTKVSDILHSLFSTYKEKILPWFEQLLPLIVNLICSSRPWPDRQWGLCIFDDIIEHCSPTSFKYVEYFRWPMLLNMRDNNPEVRQAAAYGLGVMAQFGGDDYRSLCSEAVPLLVKVIKCANSKTKKNVIATENCISAIGKILKFKPNCVNVDEVLPHWLSWLPLHEDKEEAIQTLSFLCDLIESNHPVVIGPNNSNLPKIISIIAEGKINETINYEDPCAKRLANVVRQVQTSEDLWLECVSQLDDEQQEALQELLNFA [RANBP6]
- solubility in G1/S (log2) (HeLa Kyoto [1]): -0.0197
- melting temperature (HeLa Kyoto [2]; cell cycle stage: G1/S): 49.9 °C
- melting temperature (HeLa Kyoto [2]; cell cycle stage: mitosis): 51.5 °C
- solubility change mitosis (log2) (HeLa Kyoto [3]): -0.132
- thermal stability score (HeLa Kyoto [4]; [5]): 0.799
- thermal stability score (HeLa Kyoto [4]; cell cycle stage: mitosis): 0.825
